Measurements from the supplement of paper PMC9170038.

Tested on: MS2 coat protein
Assay: apparent KD of MS2 coat protein; higher = weaker reporter binding
Conditions: Eterna round: R107
Protocol: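 RNA-MaP round R107: designed RNA switches with theophylline, tryptophan, arginine or FMN aptamers are transcribed on-chip within common flanks. They are titrated with SNAP-549-labelled MS2 coat protein in RNA-MaP buffer (100 mM Tris pH 7.5, 80 mM KCl, 4 mM MgCl2), without ligand or with the indicated ligand. Median apparent KD per design.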

[1] = input ligand: theophylline 20 uM
[2] = input ligand: tryptophan 2.4 mM
[3] = input ligand: theophylline 2 mM

Sequence	apparent KD of MS2 coat protein (input ligand: arginine 13.2 mM) [µM]	apparent KD of MS2 coat protein [1] [µM]	apparent KD of MS2 coat protein [2] [µM]	apparent KD of MS2 coat protein (input ligand: none) [µM]	apparent KD of MS2 coat protein [3] [µM]
ACCGCAGGUCCUGAUACCAGAGACAUGAGGAUCACCCAUGUCCGAUCGUCCUGCCUCAGGCUCCCUUGGCAGCAGGGCUUGUCCU [Exclusion Theophylline B GF8]	0.0141	0.0206	0.0148	–	–
ACCUGUACGAAAAGUGCAGGACAUGGUAAACGAGGACCGGUACGGCCGCCACUCGAAGAAAACAAGUGGAUCACCCUUGUCCAUG [TrypAS 4 #AlternativeMS2 #Zipper #StaticStem]	0.292	0.641	1.35	0.622	2.09
ACGACAUGAGGAUCACCCAUGUAAGGUGAUACCAGACGAAGUAAUGUCCCUUGGCAGCACAAGCAUAGUUGCGAUUAUUGUACGA [JR_SSTheophyA_Sub006]	0.124	0.574	0.442	–	–
ACGAUACGACAUGAGGAUCACCCAUGUGAUACCAGCGUGGAAACACGCCCUUGGCAGCACAAAUACUCCAAUAACGUAUCGAAAA [MAT - Exclusion Theophlline A - Mod of Eli - D8]	0.139	0.211	0.26	–	–
ACGCCCAGGUAGGCUUAAUGGGAUAUGGAAGGAGCGCUGAUGCAAGCAGGUAGGUCGCCAACGGACAUGAGGAUCACCCAUGUAC [Same State - Arginine A (Freestyle 3)]	0.0153	0.0223	0.0195	0.0209	0.0238
ACGCUGAUUGAUUACAAUCAGCGAAAAGAUACCAGUGGGUAAUCCCACCCUUGGCAGCUUAAAUCUGAGGAUCACCCAGGUGGUA [TheoAS 19 #MS2Right #BothOrNeither #AlternativeMS2]	0.153	0.383	0.728	0.253	0.376
ACGGACAUGAGGAUCACCCAUGUGGCCGAAGGAGCGGGAAUUAACCCAGGUAGGUCGCGGAAAUUUUUUAAAUUAUUUUAAUUUU [Same State - Arginine A]	0.0144	0.0215	0.0173	0.0171	0.0187
ACGGAUCGGAAACGAUCCGCGGCGAGGGUGCGAGGACCGGUACGGCCGCCACUCGGGUAACAUGAGGAUCACCCAUGUCCGAAGA [ETA NuPACK+Vienna+Vienna2 #10 Same Structure]	0.0358	0.0603	0.209	0.055	0.106
ACGUAAUGCAGAAGGAGCGUCUAUGUGUUACAUGAGGAUCACCCAUGUGUUAUGUUAUGUGGACAGGUAGGUCGCUGAAGUACGA [JR_SSArginiB_Sub005]	0.045	0.104	0.081	0.127	0.134
ACGUCCAGGUUAAUCGUGGGCAUGGUCGAUACCAGUAUUUUAAUCUACCCUUGGCAGCGACAUGAGGAUCACCCAUGUGCGAUGA [XTheo A #16]	0.0138	0.0179	0.0169	0.0164	0.0401
ACGUCCCGUUUACUCGUGGGUUAGGUCGAUACCAGUAUUCAAACUUACCCUUGGCAGCGACAUGAGGAUCACCCAUGUGCGAAGA [XTheo A #22]	0.019	0.0229	0.0175	–	–
ACGUCCGGAUUACUCGUGGGCAUGGUCGAUACCAGUAUUUUAAUCUACCCUUGGCAGCGACAUGAGGAUCACCCAUGUGCGAUGA [XTheo A #20]	0.0215	0.0416	0.0218	0.0205	0.0413
ACUUCGCAUAGGAAAACUAUGUGAAGAAAUCGAGGACCGGUACGGCCGCCACUCGUCCUCAACAUGAGGAUCACCCAUGUAAUAA [Mat - Exclusion - Trytophan A - D5]	0.021	0.0243	–	–	0.0239
AGAAUAUAGUCGGCCGCCACUCUACAAACAUGAGGAUCACCCAUGUUCACAUAGUGGAAACACAUGAGGACCGGGACAUAGGCAU [#17 Same State - Tryptophan B]	0.014	0.0214	–	–	0.0183
AGAUUCGACACGGCCGCCACUUGUGGUGGAUUAUCCUAUGUAAGACAUGAGGAUCACCCAUGUACAAGGACCGGGUGUUGAGUCU [XTryp B #22]	0.108	0.336	–	–	0.385
AGCACUGUGACGGCCGCCACUACAUAAGAUGGGUGGUCAGGUUCAUUACAUGAGGAUCACCCAUGUAGGACCGGGUCUCAGUGCA [Omei Trp Exc B A v10]	0.00797	0.0165	0.00771	0.00929	0.0109
AGCACUGUGACGGCCGCCACUACAUAUAGGGUGGUCAGGUUCAUAAUACAUGAGGAUCACCCAUGUAGGACCGGGUCUCAGUGCA [Omei Trp Exc B A v5]	0.0125	0.0146	–	–	0.0146
AGCAUGUUCAGAAGGAGCGUGCAAGGGUACAUUCGUAGGACAUGAGGAUCACCCAUGUAAGCACAGGUAGGUCGCUGGACAUGCU [Arg B SS t5]	0.0711	0.0824	0.107	0.0987	0.129
AGCCACUCGAGUGAUCCUCACGAGUGGCUACGAGGACCGGUACGGCCGCCACUCGAAUUAACAUGAGGAUCACCCAUGUAAUCUA [Brourdmod07]	0.0225	0.227	–	–	0.196
AGCCAUGGAAACAUGGCGGCGGCAUGAGCGCGAGGACCGGUACGGCCGCCACUCGGGCAACAUGAGGAUCACCCAUGUUCCUCAU [ETA NP+V+V2 #20 +-Same Structure]	0.0625	0.14	0.363	0.101	0.158
AGCCCGGGAGCGGCCGCCACUGGAGGCUUAGCGCGACAUGAGGAUCACCCAUGUGUGCCCGGCGUUAGGACCGGGCUCGCGUGGU [#1 Same State - Tryptophan B Attempt #22 (HarryS)]	0.0153	0.0527	0.0352	0.0312	0.0461
AGCCCUGUACUAGAUACCAGCUACAUGAGGAUCACCCAUGUACGAUAAGACUGUCCAUGUAGCCCUUGGCAGCUGCUCGCAUGUA [#13 Exclusion-TheophyllineB]	0.0241	0.0413	0.0292	–	–
AGCCGGAUUACGGCCGCCACUGUAGACGUGACGAAAGUCGCGUCAACAUGAGGAUCACCCAUGUACAGGACCGGGUGGUCCGGCA [Omei Trp B SS A v3]	0.00709	0.0112	0.00897	0.00961	0.00887
AGCCUAUUACAUGAGGAUCACCCAUGUGAUACCAGUCAGGAAACUGACCCUUGGCAGCGCAUGAGGAUCACCCAUGCGCGAGGCA [Omei Theo A Exc A v4]	0.0101	0.0129	0.0106	–	–
AGCGACAUGCAUGAUACCAGCUACAUGAGGAUCACCCAUGUACGUCAGUAAUGACUGUGUAGCCCUUGGCAGCAUAAAGCAUGUC [Exclusion - Theophylline B (Freestyle 17)]	0.0228	0.0445	0.0265	–	–
AGCGAUAUGCAUGAUACCAGCUACAUGAGGAUCACCCAUGUGCGUCAGAAAUGACUGUGUAGCCCUUGGCAGCAUAGAGCAUGUA [Exclusion - Theophylline B (Freestyle 11)]	0.0352	0.0462	0.0384	–	–
